In patent US7470669B2, “Isolated polypeptide comprising a leptin fragment” (Serono Genetics Institute, S.A., priority 1999, dated 2008):

Tests used:
db^Pas/db^Pas mice = test: Postprandial plasma TG response after high-fat test meal in db^Pas/db^Pas mice; format: in vivo, mouse; details: 0.25 μg/animal i.p.
Protocol: FIGS. 1A and 1B show the effect of leptin on postprandial plasma TG response in db/db and db^Pas/db^Pas mice. Overnight-fasted db/db (A), db^Pas/db^Pas (B) mice were gavage-fed a high-fat test meal and immediately injected intravenously (db/db) or intraperitoneally (db^Pas/db^Pas) with saline (open symbols) or 50 μg mouse recombinant leptin (closed symbols). At the indicated times, blood was collected from the tail (A) or orbital (B) vein, plasma was separated by centrifugation, and plasma TG concentrations were determined using an enzymatic kit. Each point represents the mean±SEM (db/db: saline, n=4, leptin, n=3; db^Pas/db^Pas: saline, n=6, leptin, n=7). […] The plasma lipid response was then measured as in A and B. The area under the response curve (AUC) was then calculated using a triangulation method on Microsoft Excel between 0 and 4 hr (mg TG·h/mL). […]
FIGS. 7A and 7B show a comparison of the effect of human and mouse leptin on LSR activity in rat hepatocytes and on postprandial increase in plasma TG in db^Pas/db^Pas mice. […] The media were removed and were analyzed for TCA-soluble degradation products. […] The data represent the difference in TG concentrations measured at t=0 and the average of the concentrations at 3 and 4 hours. […]

LSR = LSR activity (oleate-induced 125I-LDL binding, uptake, degradation) in PLC cells; format: cell-based, human; details: 10 ng/mL recombinant leptin
Protocol: FIGS. 5A, 5B, 5C, and 5D show the stimulatory effect of leptin on LSR activity in PLC and suppression of this effect by 81B antibody. For FIGS. 5A, 5B, and 5C, cultured PLC cells were incubated at 37° C. for 30 min with increasing concentrations of human recombinant leptin in Buffer A. After this, 0.5 mM oleate and 20 μg/mL ^125I-LDL were added, and cells were further incubated at 37° C. for 2 h. Cells were washed, and the amount of oleate-induced ^125I-LDL bound (5A), internalized (5B) and degraded (5C) were measured. […] After washing, the amount of ^125I-LDL binding was determined, and is shown here as the mean±SD of triplicate determinations.
FIGS. 8A and 8B show the effect of mouse or human leptin on LSR activity in primary cultures of rat hepatocytes or a human liver cell line (PLC). […] The cells were washed, and the amount of oleate-induced ^125I-LDL bound and degraded was measured as described previously (Bihain, B. E., and Yen, F. T. (1992). Free fatty acids activate a high-affinity saturable pathway for degradation of low density lipoproteins infibroblasts from a subject homozygous for familial hypercholesterolemia. Biochemistry 31, 4628-4636.
FIGS. 35A and 35B show graphs of LSR activity and mRNA expression measured in PLC cells preincubated 24 h with leptin. […] Cells were washed, and the amount of oleate-induced ^125I-LDL binding was measured as described previously. […]

B1: mouse leptin: recombinant mouse leptin, laboratory-prepared or commercial (Sigma, Calbiochem) (protein, UniProt P41160 22-167, looked up)
Leptin: VPIQKVQDDTKTLIKTIVTRINDISHTQSVSAKQRVTGLDFIPGLHPILSLSKMDQTLAVYQQVLTSLPSQNVLQIANDLENLRDLLHLLAFSKSCSLPQTSGLQKPESLDGVLEASLYSTEVVALSRLQGSLQDILQQLDVSPEC
postprandial plasma TG response (db^Pas/db^Pas mice): pronounced effect | stimulation of LSR activity in human PLC cells (LSR): inactive
